This series concerns the molecule itself. The experiment in a line: SEC; α (His6) and untagged β co-expressed in E. coli and co-purified by metal chelation and gel filtration (Superdex200; 20 mM Tris-HCl, 0.2 M NaCl, 10% glycerol, pH 7.4); 150- to 200-kDa complex in solution (Fig. S1; the text does not say how the size was estimated).

B1: β-subunit of CumDO-O (CumA2) (natural protein, Pseudomonas fluorescens IP01, UniProt Q51744 1-186, looked up)
chain: MTSADLTKPIEWPEMPVSLELQNAVEQFYYREAQLLDYQNYEAWLALLTQDIQYWMPIRTTHTSRNKAMEYVPPGGNAHFDETYESMRARIRARVSGLNWTEDPPSRSRHIVSNVIVRETESAGTLEVSSAFLCYRNRLERMTDIYVGERRDILLRVSDGLGFKIAKRTILLDQSTITANNLSQFF
notes: CumA2, β-subunit of CumDO-O (cumene dioxygenase oxygenase component), not tagged; also called 21-kDa β-subunit
Regarding B1, the binding result is “binds”.

B2: α-subunit of CumDO-O (CumA1) (natural protein)
chain: not shown
notes: CumA1, α-subunit of CumDO-O (cumene dioxygenase oxygenase component); also called 51-kDa α-subunit; not shown: His6, C-terminal, kept
For B2, the binding result is “binds”.

Source of the values: PMC9361823, “The α- and β-Subunit Boundary at the Stem of the Mushroom-Like α3β3-Type Oxygenase Component of Rieske Non-Heme Iron Oxygenases Is the Rieske-Type Ferredoxin-Binding Site” (Applied and Environmental Microbiology, 2022).
